The values below are quoted from earlier work in PMC5567442.

One may read the Kd as the concentration at which binding is half-saturated.

The target in the data set is Kv1.3 (UniProt P22001).
Chain of UniProt P22001 (P22001 whole entry): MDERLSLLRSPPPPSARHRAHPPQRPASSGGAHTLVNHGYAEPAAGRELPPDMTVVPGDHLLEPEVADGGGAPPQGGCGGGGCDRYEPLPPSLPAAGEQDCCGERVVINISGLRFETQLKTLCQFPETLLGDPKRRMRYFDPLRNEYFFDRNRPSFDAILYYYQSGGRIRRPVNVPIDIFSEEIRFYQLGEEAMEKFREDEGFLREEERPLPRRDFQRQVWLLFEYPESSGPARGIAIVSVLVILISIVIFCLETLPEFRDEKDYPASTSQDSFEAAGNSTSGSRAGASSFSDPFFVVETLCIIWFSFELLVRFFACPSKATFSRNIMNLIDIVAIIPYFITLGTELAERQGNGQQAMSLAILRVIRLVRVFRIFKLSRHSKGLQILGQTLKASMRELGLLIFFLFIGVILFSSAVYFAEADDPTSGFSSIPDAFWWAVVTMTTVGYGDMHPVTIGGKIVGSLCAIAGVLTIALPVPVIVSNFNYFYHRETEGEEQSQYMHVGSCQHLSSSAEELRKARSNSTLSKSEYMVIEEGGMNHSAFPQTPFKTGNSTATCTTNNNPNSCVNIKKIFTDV

On to Agitoxin-2 (from UniProt P46111), for which the Kd is 0.177 nM.
